The target of test [1] is T1, recombinant human APRIL (human, UniProt O75888 105-250, limits assumed).
T1 sequence (looked up): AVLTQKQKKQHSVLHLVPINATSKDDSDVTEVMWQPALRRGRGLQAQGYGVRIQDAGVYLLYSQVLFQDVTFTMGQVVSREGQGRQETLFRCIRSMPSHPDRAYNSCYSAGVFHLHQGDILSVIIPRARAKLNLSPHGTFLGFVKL
The experiment in a line: cell-based or functional assay.

Test [2] addresses recombinant human BAFF (human) (UniProt Q9Y275). The experiment in a line: cell-based or functional assay.
Test [3] shares this target.

As to “TACI vTD-Fc Q75E, Y102D (SEQ ID NO: 181) (Fc fusion)”, the APRIL IC50 (pM) in test [1] stood at 11100 pM.
Regarding “TACI vTD-Fc A101D, Y102D (SEQ ID NO: 189) (Fc fusion)”, in test [1], the APRIL IC50 (pM) worked out at 33600 pM and the APRIL IC50 (ΔWT) (fold of WT TACI (68-110)-Fc) was determined as 2.72. Further, in test [2], the BAFF IC50 (pM) turned out to be 1950 pM and the BAFF IC50 (ΔWT) (fold of WT TACI (68-110)-Fc) came out at 1.05.
Consider “TACI vTD-Fc R84Q, Y102D (SEQ ID NO: 188) (Fc fusion)”, for which, in test [1], the APRIL IC50 (pM) came to 12300 pM and the APRIL IC50 (ΔWT) (fold of WT TACI (68-110)-Fc) is 1. In test [2], the BAFF IC50 (pM) came out at 1860 pM and the BAFF IC50 (ΔWT) (fold of WT TACI (68-110)-Fc) was determined as 1.01.
Take “TACI vTD-Fc K77E, Y102D (SEQ ID NO: 192) (Fc fusion)”: in test [1], the APRIL IC50 (pM) came out at 891 pM and the APRIL IC50 (ΔWT) (fold of WT TACI (68-110)-Fc) amounted to 0.07. Also, in test [2], the BAFF IC50 (pM) turned out to be 2180 pM and the BAFF IC50 (ΔWT) (fold of WT TACI (68-110)-Fc) was determined as 1.17.
The corresponding values for “TACI vTD-Fc R84Q, A101D (SEQ ID NO: 187) (Fc fusion)” are 11200 pM, 0.91, 2350 pM and 1.27.
As for “TACI vTD-Fc Q75E, A101D (SEQ ID NO: 180) (Fc fusion)”, in test [1], the APRIL IC50 (pM) was determined as 20000 pM and the APRIL IC50 (ΔWT) (fold of WT TACI (68-110)-Fc) came to 1.62. Besides, in test [2], the BAFF IC50 (pM) came out at 2360 pM and the BAFF IC50 (ΔWT) (fold of WT TACI (68-110)-Fc) was found to be 1.27.
Regarding “TACI vTD-Fc K77E, R84Q (SEQ ID NO: 24) (Fc fusion)”, in test [3], the IC50 (read off the curve): blockade of human BAFF signalling via TACI (NF-κB luciferase reporter, Jurkat/NF-κB/TACI cells) was found to be 600 pM. In addition, in test [1], the APRIL IC50 (pM) is 4260 pM and the APRIL IC50 (ΔWT) (fold of WT TACI (68-110)-Fc) is 0.35. For the same substance, in test [2], the BAFF IC50 (pM) turned out to be 2260 pM and the BAFF IC50 (ΔWT) (fold of WT TACI (68-110)-Fc) stood at 1.22.
“TACI vTD-Fc Q75E (SEQ ID NO: 177) (Fc fusion)”: in test [1], the APRIL IC50 (pM) stood at 1940 pM and the APRIL IC50 (ΔWT) (fold of WT TACI (68-110)-Fc) is 0.16. Also, in test [2], the BAFF IC50 (pM) came out at 1460 pM and the BAFF IC50 (ΔWT) (fold of WT TACI (68-110)-Fc) was found to be 0.79.
With “TACI vTD-Fc K77E, A101D (SEQ ID NO: 25) (Fc fusion)”, the IC50 (read off the curve): blockade of human BAFF signalling via TACI (NF-κB luciferase reporter, Jurkat/NF-κB/TACI cells) in test [3] stood at 600 pM. For the same substance, in test [1], the APRIL IC50 (pM) stood at 2040 pM and the APRIL IC50 (ΔWT) (fold of WT TACI (68-110)-Fc) stood at 0.17. Further, in test [2], the BAFF IC50 (pM) came to 1960 pM and the BAFF IC50 (ΔWT) (fold of WT TACI (68-110)-Fc) was determined as 1.06.
“TACI vTD-Fc F78Y, R84Q (SEQ ID NO: 184) (Fc fusion)”: in test [1], the APRIL IC50 (pM) was found to be 2620 pM and the APRIL IC50 (ΔWT) (fold of WT TACI (68-110)-Fc) came out at 0.21. Further, in test [2], the BAFF IC50 (pM) was determined as 2260 pM and the BAFF IC50 (ΔWT) (fold of WT TACI (68-110)-Fc) was 1.22.
Regarding “BAFF-R ECD (from UniProt Q96RJ3 1-78) (receptor)”, in test [2], the BAFF IC50 (pM) was 53200 pM and the BAFF IC50 (ΔWT) (fold of WT TACI (68-110)-Fc) amounted to 28.7.
For “TACI vTD-Fc F78Y, Y102D (SEQ ID NO: 186) (Fc fusion)”, in test [1], the APRIL IC50 (pM) stood at 8490 pM and the APRIL IC50 (ΔWT) (fold of WT TACI (68-110)-Fc) was 0.69. Besides, in test [2], the BAFF IC50 (pM) worked out at 1960 pM and the BAFF IC50 (ΔWT) (fold of WT TACI (68-110)-Fc) is 1.06.
The like results for “TACI vTD-Fc Q75E, F78Y (SEQ ID NO: 179) (Fc fusion)” were, in that order, 13400 pM, 1.09, 1790 pM and 0.97.
The like results for “TACI vTD-Fc Q75E, K77E (SEQ ID NO: 178) (Fc fusion)” were, in that order, 10700 pM, 0.87, 1890 pM and 1.02.

For the origin of these results see patent US20250019412A1 (ALPINE IMMUNE SCIENCES, published 2025).
